The target of series [1] is R170A/R220A/Y227F/E449R mutant β-glucosidase (Pyrococcus furiosus). The series can be described thus: gel filtration (Superdex 200), oligomeric state. (In general: Size exclusion chromatography separates by hydrodynamic size, large species first.)
Series [2] concerns the molecule itself. The series can be described thus: gel filtration (Superdex 200), oligomeric state. The method, then: (§1) The molecular weights of the parent glucosidase and the mutants were determined by gel filtration using HiLood 26/60 Suuperdex 200 as the column, a 50 mM tris-hydrochloride (pH 8) and 150 mM sodium chloride as the buffer. The enzymes prepared in Example 2, Reference Example 1, and Example 9 were each added to the column and eluted with the buffer at a flow rate of 2 mL/min. The enzyme was detected by measuring absorbance at 280 nm. Ovoalbumin (44 kDa), conalbumin (75 kDa), aldolase (158 kDa), and ferritin (440 kDa) were used as molecular weight markers, and a calibration curve was drawn based on the elution time of each enzyme component. The molecular weights measured by gel filtration (observed molecular weights: kDa) and molecular weights estimated from the amino acid primary structures (estimated molecular weights: kDa) are summarized in Table 8.

Series [3] concerns the molecule itself. Description: gel filtration (Superdex 200), self-association. The method, then:
as §1

Series [4] deals with the molecule itself. The series can be described thus: blue-native PAGE, self-association. The method, then:
Whether the parent β-glucosidase and our β-glucosidases, R170A mutant, R170A/R220A mutant, and R170A/R220A/Y227F mutant, form stable tetramers or not was investigated by blue-native PAGE.
In the blue-native PAGE, 3-12% Native-PAGE Bis-Tris Gel (Invitrogen Corporation) was used. Electrophoresis samples were prepared by dissolving 1 μg of each of the parent β-glucosidase, R170A mutant, R170A/R220A mutant, and R170A/R220A/Y227F mutant in a sample buffer (50 mM imidazole (pH 7.0), 50 mM NaCl, 5 mM 6-aminohexanoic acid, 0.5% Coomassie G250, and 0.5% DDM). NativeMark protein standard (Invitrogen Corporation) was used as molecular weight markers. In the electrophoresis, 50 mM Tricine, 7.5 mM imidazole (pH 7.0), and Coomassie G250 were added to […], whereas 25 mM imidazole (pH 7.0) was added to the cathode side. The electrophoresis was performed at a constant voltage of 150 V for 100 minutes. After fixation of bands, G-250 was decolorized.

The source of these data is patent US20140127759A1 (TORAY INDUSTRIES, published 2014).

B1: R170A/R220A/Y227F/E449R mutant β-glucosidase (enzyme)
chain: AKFPKNFMFGYSWSGFQFEMGLPGSEVESDWWVWVHDKENIASGLVSGDLPENGPAYWHLYKQDHDIAEKLGMDCIRGGIEWARIFPKPTFDVKVDVEKDEEGNIISVDVPESTIKELEKIANMEALEHYRKIYSDWKERGKTFILNLYHWPLPLWIHDPIAVRKLGPDAAPAGWLDEKTVVEFVKFAAFVAYHLDDLVDMWSTMNEPNVVYNQGYINLASGFPPGFLSFEAAEKAKFNLIQAHIGAYDAIKEYSEKSVGVIYAFAWHDPLAEEYKDEVEEIRKKDYEFVTILHSKGKLDWIGVNYYSRLVYGAKDGHLVPLPGYGFMSERGGFAKSGRPASDFGWEMYPEGLENLLKYLNNAYELPMIITENGMADAADRYRPHYLVSHLKAVYNAMKEGADVRGYLHWSLTDNYEWAQGFRMRFGLVYVDFETKKRYLRPSALVFRRIATQKEIPEELAHLADLKFVTRK
For B1, the Observed molecular weight (kDa) in series [1] came out at 92 kDa.

B2: R170A/R220A/Y227F/R448E mutant β-glucosidase (enzyme)
chain: AKFPKNFMFGYSWSGFQFEMGLPGSEVESDWWVWVHDKENIASGLVSGDLPENGPAYWHLYKQDHDIAEKLGMDCIRGGIEWARIFPKPTFDVKVDVEKDEEGNIISVDVPESTIKELEKIANMEALEHYRKIYSDWKERGKTFILNLYHWPLPLWIHDPIAVRKLGPDAAPAGWLDEKTVVEFVKFAAFVAYHLDDLVDMWSTMNEPNVVYNQGYINLASGFPPGFLSFEAAEKAKFNLIQAHIGAYDAIKEYSEKSVGVIYAFAWHDPLAEEYKDEVEEIRKKDYEFVTILHSKGKLDWIGVNYYSRLVYGAKDGHLVPLPGYGFMSERGGFAKSGRPASDFGWEMYPEGLENLLKYLNNAYELPMIITENGMADAADRYRPHYLVSHLKAVYNAMKEGADVRGYLHWSLTDNYEWAQGFRMRFGLVYVDFETKKRYLRPSALVFEEIATQKEIPEELAHLADLKFVTRK
notes: start methionine not included; Estimated to be monomeric
As for B2, the “Observed molecular weight (kDa)” value in series [2] worked out at 70 kDa. The binding result in series [3] was “no binding”.

B3: R170A/R220A mutant β-glucosidase (enzyme)
chain: AKFPKNFMFGYSWSGFQFEMGLPGSEVESDWWVWVHDKENIASGLVSGDLPENGPAYWHLYKQDHDIAEKLGMDCIRGGIEWARIFPKPTFDVKVDVEKDEEGNIISVDVPESTIKELEKIANMEALEHYRKIYSDWKERGKTFILNLYHWPLPLWIHDPIAVRKLGPDAAPAGWLDEKTVVEFVKFAAFVAYHLDDLVDMWSTMNEPNVVYNQGYINLASGFPPGYLSFEAAEKAKFNLIQAHIGAYDAIKEYSEKSVGVIYAFAWHDPLAEEYKDEVEEIRKKDYEFVTILHSKGKLDWIGVNYYSRLVYGAKDGHLVPLPGYGFMSERGGFAKSGRPASDFGWEMYPEGLENLLKYLNNAYELPMIITENGMADAADRYRPHYLVSHLKAVYNAMKEGADVRGYLHWSLTDNYEWAQGFRMRFGLVYVDFETKKRYLRPSALVFREIATQKEIPEELAHLADLKFVTRK
notes: start methionine not included; also called A170A/R220A mutant [sic]
B3: in series [4], the binding result is “binds”.

B4: parent β-glucosidase (Pyrococcus furiosus) (enzyme)
chain: AKFPKNFMFGYSWSGFQFEMGLPGSEVESDWWVWVHDKENIASGLVSGDLPENGPAYWHLYKQDHDIAEKLGMDCIRGGIEWARIFPKPTFDVKVDVEKDEEGNIISVDVPESTIKELEKIANMEALEHYRKIYSDWKERGKTFILNLYHWPLPLWIHDPIAVRKLGPDRAPAGWLDEKTVVEFVKFAAFVAYHLDDLVDMWSTMNEPNVVYNQGYINLRSGFPPGYLSFEAAEKAKFNLIQAHIGAYDAIKEYSEKSVGVIYAFAWHDPLAEEYKDEVEEIRKKDYEFVTILHSKGKLDWIGVNYYSRLVYGAKDGHLVPLPGYGFMSERGGFAKSGRPASDFGWEMYPEGLENLLKYLNNAYELPMIITENGMADAADRYRPHYLVSHLKAVYNAMKEGADVRGYLHWSLTDNYEWAQGFRMRFGLVYVDFETKKRYLRPSALVFREIATQKEIPEELAHLADLKFVTRK
notes: Recombinant, expressed in E. coli; Homotetramer in crystal and in solution; also called wild-type; parent glucosidase
As for B4, the “Observed molecular weight (kDa)” value in series [2] stood at 237 kDa.

B5: R170A/R220A/Y227F/E459G mutant β-glucosidase (enzyme)
chain: AKFPKNFMFGYSWSGFQFEMGLPGSEVESDWWVWVHDKENIASGLVSGDLPENGPAYWHLYKQDHDIAEKLGMDCIRGGIEWARIFPKPTFDVKVDVEKDEEGNIISVDVPESTIKELEKIANMEALEHYRKIYSDWKERGKTFILNLYHWPLPLWIHDPIAVRKLGPDAAPAGWLDEKTVVEFVKFAAFVAYHLDDLVDMWSTMNEPNVVYNQGYINLASGFPPGFLSFEAAEKAKFNLIQAHIGAYDAIKEYSEKSVGVIYAFAWHDPLAEEYKDEVEEIRKKDYEFVTILHSKGKLDWIGVNYYSRLVYGAKDGHLVPLPGYGFMSERGGFAKSGRPASDFGWEMYPEGLENLLKYLNNAYELPMIITENGMADAADRYRPHYLVSHLKAVYNAMKEGADVRGYLHWSLTDNYEWAQGFRMRFGLVYVDFETKKRYLRPSALVFREIATQKEIPEGLAHLADLKFVTRK
notes: as for B2
In the case of B5, in series [2], the “Observed molecular weight (kDa)” value is 50 kDa. Further, the binding result in series [3] is reported as “no binding”.

B6: R170A mutant β-glucosidase (enzyme)
chain: AKFPKNFMFGYSWSGFQFEMGLPGSEVESDWWVWVHDKENIASGLVSGDLPENGPAYWHLYKQDHDIAEKLGMDCIRGGIEWARIFPKPTFDVKVDVEKDEEGNIISVDVPESTIKELEKIANMEALEHYRKIYSDWKERGKTFILNLYHWPLPLWIHDPIAVRKLGPDAAPAGWLDEKTVVEFVKFAAFVAYHLDDLVDMWSTMNEPNVVYNQGYINLRSGFPPGYLSFEAAEKAKFNLIQAHIGAYDAIKEYSEKSVGVIYAFAWHDPLAEEYKDEVEEIRKKDYEFVTILHSKGKLDWIGVNYYSRLVYGAKDGHLVPLPGYGFMSERGGFAKSGRPASDFGWEMYPEGLENLLKYLNNAYELPMIITENGMADAADRYRPHYLVSHLKAVYNAMKEGADVRGYLHWSLTDNYEWAQGFRMRFGLVYVDFETKKRYLRPSALVFREIATQKEIPEELAHLADLKFVTRK
notes: start methionine not included in the entry
As to B6, the binding result in series [4] is on record as “binds”.

B7: R170A/R220A/Y227F/R448G mutant β-glucosidase (enzyme)
chain: AKFPKNFMFGYSWSGFQFEMGLPGSEVESDWWVWVHDKENIASGLVSGDLPENGPAYWHLYKQDHDIAEKLGMDCIRGGIEWARIFPKPTFDVKVDVEKDEEGNIISVDVPESTIKELEKIANMEALEHYRKIYSDWKERGKTFILNLYHWPLPLWIHDPIAVRKLGPDAAPAGWLDEKTVVEFVKFAAFVAYHLDDLVDMWSTMNEPNVVYNQGYINLASGFPPGFLSFEAAEKAKFNLIQAHIGAYDAIKEYSEKSVGVIYAFAWHDPLAEEYKDEVEEIRKKDYEFVTILHSKGKLDWIGVNYYSRLVYGAKDGHLVPLPGYGFMSERGGFAKSGRPASDFGWEMYPEGLENLLKYLNNAYELPMIITENGMADAADRYRPHYLVSHLKAVYNAMKEGADVRGYLHWSLTDNYEWAQGFRMRFGLVYVDFETKKRYLRPSALVFGEIATQKEIPEELAHLADLKFVTRK
notes: as for B2
As to B7, the “Observed molecular weight (kDa)” value in series [2] was determined as 63 kDa. Also, the binding result in series [3] is recorded as “no binding”.

B8: R170A/R220A/Y227F mutant β-glucosidase (enzyme)
chain: AKFPKNFMFGYSWSGFQFEMGLPGSEVESDWWVWVHDKENIASGLVSGDLPENGPAYWHLYKQDHDIAEKLGMDCIRGGIEWARIFPKPTFDVKVDVEKDEEGNIISVDVPESTIKELEKIANMEALEHYRKIYSDWKERGKTFILNLYHWPLPLWIHDPIAVRKLGPDAAPAGWLDEKTVVEFVKFAAFVAYHLDDLVDMWSTMNEPNVVYNQGYINLASGFPPGFLSFEAAEKAKFNLIQAHIGAYDAIKEYSEKSVGVIYAFAWHDPLAEEYKDEVEEIRKKDYEFVTILHSKGKLDWIGVNYYSRLVYGAKDGHLVPLPGYGFMSERGGFAKSGRPASDFGWEMYPEGLENLLKYLNNAYELPMIITENGMADAADRYRPHYLVSHLKAVYNAMKEGADVRGYLHWSLTDNYEWAQGFRMRFGLVYVDFETKKRYLRPSALVFREIATQKEIPEELAHLADLKFVTRK
notes: start methionine not included; Homodimer in crystal and by gel filtration; also called mutant (R170A/R220A/Y227F)
For the molecule B8, in series [2], the “Observed molecular weight (kDa)” value turned out to be 129 kDa.
